Measurements: the supplement of paper PMC9112550, “Optimization of the antimicrobial peptide Bac7 by deep mutational scanning” (BMC Biology, 2022)

Test system: Escherichia coli TOP10
Experiment: shrunken log2 fold change of peptide-encoding DNA abundance (4.5 h post-induction vs induction); higher = less antimicrobial activity (less host growth inhibition)
Settings: time post-induction: 4.5 h; library: site-saturation at positions 5, 18, 19, 20
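Further: peptides expressed intracellularly from a pBAD plasmid library in pooled LB shake-flask culture, induced with 0.3% L-arabinose, DNA abundance read by NGS, three biological replicates, DESeq2 with apeglm shrinkage.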

Sequence	shrunken log2 fold change
RRIRKRPPRLPRPRPRPCEQPRP	0.324
RRIRDRPPRLPRPRPRPIFYPRP	0.0295
RRIRYRPPRLPRPRPRPNYRPRP	-0.306
RRIRMRPPRLPRPRPRPNEAPRP	0.326
RRIRDRPPRLPRPRPRPGKSPRP	0.0637
RRIRYRPPRLPRPRPRPMYHPRP	-0.707
RRIRMRPPRLPRPRPRPCWYPRP	0.092
RRIRLRPPRLPRPRPRPMYCPRP	-0.0105
RRIRLRPPRLPRPRPRPWFCPRP	-0.195
RRIRYRPPRLPRPRPRPEETPRP	-0.119
RRIRARPPRLPRPRPRPQGCPRP	0.03
RRIRCRPPRLPRPRPRPRVIPRP	0.0854
RRIRQRPPRLPRPRPRPEGFPRP	-0.0494
RRIRQRPPRLPRPRPRPCPFPRP	-0.505
RRIRFRPPRLPRPRPRPSMIPRP	-0.603
RRIRGRPPRLPRPRPRPSINPRP	-0.0752
RRIRKRPPRLPRPRPRPHKWPRP	-0.0776
RRIRMRPPRLPRPRPRPQKTPRP	-0.0249
RRIRVRPPRLPRPRPRPLCLPRP	-0.376
RRIRRRPPRLPRPRPRPNARPRP	0.35
RRIRYRPPRLPRPRPRPITPPRP	-0.174
RRIRKRPPRLPRPRPRPTEMPRP	0.25

Sequence	shrunken log2 fold change
RRIRSRPPRLPRPRPRPYWLPRP	-0.248
RRIRRRPPRLPRPRPRPGQHPRP	-0.0579
RRIRARPPRLPRPRPRPCIMPRP	-0.00141
RRIRGRPPRLPRPRPRPWTFPRP	-0.00633
RRIRWRPPRLPRPRPRPNIPPRP	-0.476
RRIRIRPPRLPRPRPRPTAGPRP	-0.167
RRIRVRPPRLPRPRPRPTWCPRP	0.216
RRIRWRPPRLPRPRPRPFVYPRP	-0.428
RRIRSRPPRLPRPRPRPTFTPRP	-0.269
RRIRMRPPRLPRPRPRPFWWPRP	0.158
RRIRVRPPRLPRPRPRPWNIPRP	-0.582
RRIRQRPPRLPRPRPRPANPPRP	-0.234
RRIRNRPPRLPRPRPRPHDQPRP	0.0402
RRIRPRPPRLPRPRPRPSFFPRP	0.19
RRIRCRPPRLPRPRPRPRYPPRP	-0.00708
RRIRIRPPRLPRPRPRPRRAPRP	0.176
RRIRLRPPRLPRPRPRPYYKPRP	-0.569
RRIRLRPPRLPRPRPRPRQCPRP	0.283
RRIRQRPPRLPRPRPRPSTHPRP	-0.465
RRIRVRPPRLPRPRPRPDEMPRP	0.0261
RRIRNRPPRLPRPRPRPQCGPRP	-0.241
RRIRIRPPRLPRPRPRPPMPPRP	-0.0926

Sequence	shrunken log2 fold change
RRIRERPPRLPRPRPRPHCIPRP	-0.000243
RRIRCRPPRLPRPRPRPGMEPRP	0.183
RRIRYRPPRLPRPRPRPPEAPRP	0.0456
RRIRERPPRLPRPRPRPYMPPRP	-0.429
RRIRQRPPRLPRPRPRPWLHPRP	0.0098
RRIRFRPPRLPRPRPRPDPLPRP	0.165
RRIRARPPRLPRPRPRPLHSPRP	0.0941
RRIRVRPPRLPRPRPRPHCWPRP	0.0268
RRIRYRPPRLPRPRPRPKFTPRP	-0.328
RRIRERPPRLPRPRPRPTWLPRP	0.289
RRIRYRPPRLPRPRPRPIMIPRP	-0.0191
RRIRWRPPRLPRPRPRPNEVPRP	0.0902
RRIRERPPRLPRPRPRPHGWPRP	0.136
RRIRYRPPRLPRPRPRPQTRPRP	-0.322
RRIRKRPPRLPRPRPRPKYCPRP	-0.632
RRIRGRPPRLPRPRPRPTPVPRP	1.07
RRIRERPPRLPRPRPRPVTVPRP	-0.0984
RRIRPRPPRLPRPRPRPIQAPRP	0.144
RRIRRRPPRLPRPRPRPTAVPRP	0.606
RRIRKRPPRLPRPRPRPFHCPRP	-0.0128
RRIRKRPPRLPRPRPRPFKWPRP	0.33
RRIRCRPPRLPRPRPRPAVVPRP	-0.243

Sequence	shrunken log2 fold change
RRIRVRPPRLPRPRPRPQFFPRP	-0.0611
RRIRKRPPRLPRPRPRPQFSPRP	0.0164
RRIRHRPPRLPRPRPRPEFCPRP	-0.0591
RRIRGRPPRLPRPRPRPDRWPRP	0.703
RRIRHRPPRLPRPRPRPFWLPRP	0.137
RRIRTRPPRLPRPRPRPDFRPRP	0.0337
RRIRLRPPRLPRPRPRPCYTPRP	-0.525
RRIRLRPPRLPRPRPRPNDVPRP	-0.111
RRIRWRPPRLPRPRPRPCSIPRP	-0.134
RRIRDRPPRLPRPRPRPLFMPRP	0.154
RRIRERPPRLPRPRPRPNPYPRP	-0.304
RRIRQRPPRLPRPRPRPTHSPRP	0.415
RRIRWRPPRLPRPRPRPHRDPRP	-0.215
RRIRQRPPRLPRPRPRPTAKPRP	0.151
RRIRDRPPRLPRPRPRPLVYPRP	-0.259
RRIRARPPRLPRPRPRPCCIPRP	0.13
RRIRPRPPRLPRPRPRPWVCPRP	0.23
RRIRARPPRLPRPRPRPCQMPRP	-0.0341
RRIRTRPPRLPRPRPRPNYAPRP	0.0202
RRIRCRPPRLPRPRPRPKCGPRP	0.0778
RRIRDRPPRLPRPRPRPLFQPRP	0.192
RRIRQRPPRLPRPRPRPCNAPRP	0.0357

Sequence	shrunken log2 fold change
RRIRDRPPRLPRPRPRPRQKPRP	0.56
RRIRLRPPRLPRPRPRPETEPRP	0.0833
RRIRNRPPRLPRPRPRPQHQPRP	-0.135
RRIRSRPPRLPRPRPRPRPSPRP	0.439
RRIRGRPPRLPRPRPRPRTIPRP	0.375
RRIRPRPPRLPRPRPRPNHLPRP	-0.601
RRIRNRPPRLPRPRPRPICGPRP	-0.253
RRIRLRPPRLPRPRPRPRSGPRP	0.122
RRIRPRPPRLPRPRPRPAEYPRP	-0.565
RRIRARPPRLPRPRPRPQGFPRP	0.807
RRIRSRPPRLPRPRPRPEAWPRP	0.0495
RRIRRRPPRLPRPRPRPCTIPRP	-0.182
RRIRIRPPRLPRPRPRPMCLPRP	-0.425
RRIRLRPPRLPRPRPRPIWNPRP	0.0155
RRIRARPPRLPRPRPRPPNGPRP	-0.00234
RRIRFRPPRLPRPRPRPGWLPRP	0.129
RRIRSRPPRLPRPRPRPRWAPRP	0.158
RRIRERPPRLPRPRPRPRTDPRP	0.193
RRIRERPPRLPRPRPRPRPWPRP	0.298
RRIRGRPPRLPRPRPRPSCIPRP	0.423
RRIRPRPPRLPRPRPRPTLWPRP	0.299
